Assays:
[1] = target: T1, Cy3 labelled monoubiquitinated Gallus gallus FANCD2_ybbR (Gallus gallus | , UniProt Q68Y81 1-1439; P0CG48 1-76, monoubiquitinated with His-tagged ubiquitin; Cy3 (LD555-CoA) conjugated to the ybbR tag | joined to a lysine of FANCD2); experiment: single-molecule two-colour confocal imaging on optically trapped DNA; ubD2–I formed by incubating purified ubFANCD2 and FANCI with relaxed, optically trapped λ DNA (less than 1 pN), then moved to the protein-free channel; kymographs at 15 pN; settings: both partners purified
T1 construct: FANCD2, Gallus gallus, full-length ybbR-tagged construct as in m3; ubiquitin, His-tagged, bought from Enzo Life Sciences; also called ubFANCD2; ubFANCD2_ybbR; copies: 1 + 1

[2] = target: T2, ybbR-tagged full-length Gallus gallus FANCD2 labelled with Cy3 (Gallus gallus, UniProt Q68Y81 1-1439, modified Cy3 (LD555-CoA) conjugated to the carboxyl-terminal ybbR tag); experiment: single-molecule two-colour confocal imaging on optically trapped DNA; 5 nM labelled D2–I loaded on λ DNA held between beads, imaged in the protein-free channel; 20 mM HEPES pH 7.5, 75 mM NaCl, 0.5 mg/ml BSA, 1 mM TCEP; 22 °C; settings: both partners purified
T2 construct: FANCD2, Gallus gallus, codon-optimized full-length construct; also called FANCD2-Cy3; FANCD2-ybbR; source: Sf9, purified (Strep-Tactin, heparin, Superdex 200), labelled with SFP synthase and gel filtered

binding result [1]: binds
binding result [2]: binds
B1: ybbR-tagged full-length Gallus gallus FANCI labelled with Cy5 (natural protein, UniProt B0I564 1-1338, looked up)
chain: MAQRILQLAAEGSPERLQEALQGLTEGELGDMVTRQALRGRETAALLKGIFKGSPCSQQSGVLRRLQVYKHCVSLVESGDLHVGKVSEIIGLLMLEARQLPGHALAELATLFVEVIKRGSLSNGKSLELFSTVLTALSNSKESLAYGKGELNGEEFKKQLINTLCSSKWDPQCVIHLANMFRDIPLSGEELQFVVEKVLRMFSKLDLQEIPPLVYQLLLLSAKGSKKTVLEGIISFFNQLDKRQKEEQRVPQSADLEVATVPLDQLRHVEGTVILHIVSAINLDQDIGEELIKHLKTEQQKDPGKALCPFSVSLLLSTAVKHRLQEQIFDFLKTSITRSCKDLQILQASKFLQDLCPQQYDVTAVILEVVKNSAFGWDHVTQGLVDLGFSLMESYEPKKSFGGKAAETNLGLSKMPAQQACKLGASILLETFKVHEPIRSDILEQVLNRVLTKAASPVSHFIDLLSNIVVSAPLVLQNSSSRVTETFDNLSFLPIDTVQGLLRAVQPLLKVSMSVRDSLILVLQKAIFSRQLDARKAAVAGFLLLLRNFKILGSLTSSQCSQAIGATQVQADVHACYNSAANEAFCLEILGSLRRCLSQQADVRLMLYEGFYDVLRRNSQLASSIMETLLSQIKQYYLPQQDLLPPLKLEGCIMAQGDQIFLQEPLAHLLCCIQHCLAWYKSTVHLCKGAEDEEEEEDVGFEQNFEEMLESVTRRMIKSELEDFELDKSADFSPSSGVGVKNNIYAIQVMGICEVLIEYNFKIGNFSKNKFEDVLGLFTCYNKLSEILKEKAGKNKSTLGNRIARSFLSMGFVSTLLTALFRDNAQSHEESLAVLRSSTEFMRYAVSVALQKVQQLEEMGQTDGPDGQNPEKMFQNLCKITRVLLWRYTSIPTAVEESGKKKGKSISLLCLEGLLRIFNTMQQLYAARIPQFLQALDITDGDAEEADINVTEKAAFQIRQFQRSLVNQLSSAEDDFNSKETQLLITILSTLSKLLDPGSQQFLQFLTWTVKICKENALEDLSCCKGLLTLLFSLHVLYKSPVSLLRELAQDIHACLGDIDQDVEIESRSHFAIVNVKTAAPTVCLLVLGQADKVLEEVDWLIKRLTILGSDTSEDSTQASNQTQALEKGVILQLGTLLTVFHELVQTALPAGSCVDSLLRSLSKTYAILTSLIKHYIQACRSTSNTVPGRLEKLVKLSGSHLTPQCYSFITYVQNIHSESLSFAEEKKKKKKEDETAVVSTVMAKVLRDTKPIPNLIFAIEQYEKFLIHLSKKSKVNLMQYMKLSTSRDFRINASMLDSVLQEQNTEDAENEPDNNQSGTAEQPDENQEPQKKRRRKK
modifications: modified Cy5 (LD655-CoA) conjugated to the carboxyl-terminal ybbR tag
notes: FANCI, Gallus gallus, full-length; C-terminal extension with a 3C protease site and 6xHis-tag before the ybbR tag; also called FANCI-Cy5; FANCI-ybbR; source: Sf9, purified (HisTrap, heparin, Superdex 200), labelled with SFP synthase and gel filtered
